In US20130035289A1, “PHARMACEUTICAL COMPOSITION FOR TREATMENT OF THROMBOSIS-RELATED DISEASES COMPRISING A FRAGMENT OF PROLACTIN (PRL)-GROWTH HORMONE (GH)-PLACENTAL LACTOGEN (PL)-FAMILY PROTEIN” (UNIVERSITE DE LIEGE, priority 2010, published 2013):

Assays:
PAI-1 [1] = target: T1, PAI-1 (Homo sapiens, UniProt P05121); test: Inhibition of PAI-1 anti-proteolytic activity, uPA/plasminogen chromogenic (colorimetric) assay; assay type: biochemical; conditions: for PAI-1 activity in vitro (chromogenic assay): yes/no, table title: Peptide fragments inhibiting PAI-1
T1 construct: gift of Pr; P. Declerck
Description: The main physiological function of PAI-1 is to inhibit uPA and tPA proteolytic activity. […] A chromogenic substrate for plasmin (Spectrozyme PL: 0.5 mM. American Diagnostica INC) in PBS was added to the mixture in 96-well microtitration plates and kept at room temperature. The release of free p-nitro-aniline from the chromogenic substrate was measured spectrophotometrically. The activity of plasmin was determined as the absorbance at 405 nm.

PAI-1 [2] = target: T1, PAI-1; test: In vitro clot lysis assay in pooled normal human plasma with added PAI-1 and tPA; assay type: biochemical; conditions: peptides 25 μM, human plasma; for ablility to induce clot lysis: yes/no, added PAI-1, tPA
Description: Clot lysis was performed as follows: pooled normal plasma were used in citrated tube. Recombinant wild type PAI-1 was incubated in the presence or in the absence of 16K hPRL (3 μM), 14K hGH (3 μM) or different peptides (25 μM) for 10 min at 37° C., before to be added to diluted plasma in tris tween buffer (75 μl of plasma in 200 μl of 10 mM TRIS pH 7.5, 0.01% tween 20), followed by a second incubation for 10 min at 37° C. tPA was added to each tube at the end to reach a final volume of […]. Aliquots from each tube (80 μl) were added in duplicate to 96 wells, each containing 20 μl CaCl2 to give the following final concentration per well of 10 mM. Clot formation and dissolution were monitored at RT measuring turbidity at 405 nm in 5 min intervals.

PAI-1 [3] = target: T1, PAI-1; test: Casein zymography of plasmin generation by uPA in presence of PAI-1; assay type: biochemical
Description: (a) Proteolytic activity of uPA on plasminogen (Plg) in different conditions was determined by colorimetric assay (absorbance at 405 nm) as described in Methods. […] The data represent the means±SD of duplicate samples and experiment was repeated at least three times. (b) Casein zymography showing Plg and plasmin (Pln) generation by uPA in the presence of PAI-1 alone or in combination with 14K GH or 22K GH.
For this test casein (1 mg/ml) was incorporated in 10% SDS polyacrylamide gels. Aliquots of in vitro reaction including recombinant proteins were mixed with loading buffer (10% SDS, 4% Sucrose, 0.25M Tris-Hcl pH6-8, 0.1% Bromophenol blue). After electrophoresis, SDS was removed from the gel by two washes (30 min each) of 100 mM glycine, 2.5% Triton buffer (pH 8.0) stained with 0.1% coomassie brilliant bleu, and destained in 20% methanol/10% acetic acid.

PAI-1 [4] = target: T2, PAI-1 (Mus musculus, UniProt P22777); test: Murine thromboembolism model (tPA/thromboplastin); assay type: in vivo; conditions: POPRL 7-12 10 mg/kg i.v. 5 min before t-PA/thromboplastin; control 50; p=0.3
T2 construct: from tissue; host or cells: BalbC Njrj mice, in vivo (blood)
T2 sequence (P22777 23-402): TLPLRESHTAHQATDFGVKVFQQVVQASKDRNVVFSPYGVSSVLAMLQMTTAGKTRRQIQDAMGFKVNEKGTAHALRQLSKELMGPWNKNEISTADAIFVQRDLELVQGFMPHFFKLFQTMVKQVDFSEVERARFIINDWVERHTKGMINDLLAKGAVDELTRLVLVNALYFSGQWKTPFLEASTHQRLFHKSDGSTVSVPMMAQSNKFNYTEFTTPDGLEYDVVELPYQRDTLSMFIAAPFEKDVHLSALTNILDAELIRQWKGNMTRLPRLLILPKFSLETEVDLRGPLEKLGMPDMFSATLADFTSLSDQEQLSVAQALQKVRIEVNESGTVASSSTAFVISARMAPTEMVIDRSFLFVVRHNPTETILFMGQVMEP
Description: BalbC Njrj Mice were used and anesthetised with ketamine/xylazine throughout the whole experiment. Recombinant 16K PRL and adenovirus vectors 16K-Ad and Null-Ad were produced as described above. The animal experiment protocol used was approved by the Institutional Ethics Committee of the University of Liege.
Recombinant 16K PRL (1 mg/kg) or POPRL 7-12 (10 mg/kg) were administrated via the vein to BalbC Njrj mice of approximately 15-18 g. Five minutes after the injection, a suboptimal concentration of t-PA (0.1 mg/kg) was injected immediately followed by i.v. injection of thromboplastin (3.3 μg/kg) to evoke thromboembolism. Mice were evaluated after 15 min for survival. For experiment with adenovirus vectors, mice were injected into the tail vein with 10^9 pfu of 16K hPRL adenovirus (16K-Ad) and their corresponding control (Null-Ad) 5 days before the injection a suboptimal concentration of t-PA (0.1 mg/kg) injected immediately followed by i.v. injection of thromboplastin (3.3 μg/kg).
The fisher test was used to determine the significance of the differences in the mortality assays.

T1 sequence (P05121 24-402): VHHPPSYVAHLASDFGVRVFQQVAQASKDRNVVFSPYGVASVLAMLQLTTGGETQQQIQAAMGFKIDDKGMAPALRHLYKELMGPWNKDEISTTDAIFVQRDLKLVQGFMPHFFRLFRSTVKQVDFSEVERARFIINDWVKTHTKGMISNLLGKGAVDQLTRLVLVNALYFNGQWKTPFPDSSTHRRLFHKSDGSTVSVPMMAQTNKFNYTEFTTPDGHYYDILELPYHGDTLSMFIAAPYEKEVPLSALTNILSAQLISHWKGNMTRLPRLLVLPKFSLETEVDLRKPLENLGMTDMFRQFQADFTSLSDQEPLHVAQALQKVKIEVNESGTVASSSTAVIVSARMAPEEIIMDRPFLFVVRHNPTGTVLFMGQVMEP

| Substance | PAI-1 activity in vitro (chromogenic assay) (PAI-1 [1]) | ablility to induce clot lysis (PAI-1 [2]) | clot lysis in the presence of added PAI-1 (PAI-1 [2]) | inhibition of PAI-1 function to inhibit uPA and tPA proteolytic activity (PAI-1 [1]; uPA, bovine plasminogen, PAI-1, absorbance 405 nm) | inhibition of plasmin (Pln) generation in the presence of PAI-1 (PAI-1 [3]) | mortality (PAI-1 [4]) [%] |
| --- | --- | --- | --- | --- | --- | --- |
| FLSLIV [POPRL 1-6] | yes | yes |  |  |  |  |
| SLLLIQ [POGH 5-10] | yes | yes | as effective as the tilted peptide of GH: POGH |  |  |  |
| IQSWLE [POGH 9-14] | yes | yes |  |  |  |  |
| 22K GH: the full fragment (full-length) growth hormone [reference compound] |  |  |  | did not show any inhibition | no effect |  |
| SILRSW [POPRL 7-12] | yes | yes |  |  |  | 30 |
| LLRISL [POGH 1-6] | yes | yes |  |  |  |  |
| IVSILR [POPRL 5-10] | yes | yes |  |  |  |  |
| RISLLL [POGH 3-8] | yes | yes |  |  |  |  |
| LSQILSSLIQSWLE [POGHmut, reference compound] | no | no |  |  |  |  |
| LLRISLLLIQSWLE [POGH] | yes | yes |  |  |  |  |
